The target of series [1] is PD-1 ligand (PD-L1) fused to an intracellular monomeric green fluorescent protein (mGFP), Q9NZQ7. Description: DNA-PAINT super-resolution microscopy with nearest-neighbour analysis (SPINNA); CHO cells co-expressing CD80-mCherry and PD-L1-mEGFP, fixed with 4% PFA; labelled with anti-mCherry and anti-GFP nanobodies; two-round Exchange-PAINT, ~3 nm localization precision; model of monomers, homodimers …. The following applies: other: DNA-PAINT super-resolution microscopy with nearest-neighbour analysis (SPINNA).
PD-1 ligand (PD-L1) fused to an intracellular monomeric green fluorescent protein (mGFP), Q9NZQ7, sequence (Q9NZQ7 19-290): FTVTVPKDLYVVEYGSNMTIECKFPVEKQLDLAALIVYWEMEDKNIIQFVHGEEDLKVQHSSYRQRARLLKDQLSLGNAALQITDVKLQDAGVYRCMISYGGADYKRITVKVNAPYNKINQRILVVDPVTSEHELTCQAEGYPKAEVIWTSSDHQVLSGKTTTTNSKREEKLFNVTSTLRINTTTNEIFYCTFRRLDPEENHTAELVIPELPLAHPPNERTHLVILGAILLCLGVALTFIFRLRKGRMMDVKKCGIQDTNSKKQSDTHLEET

Series [2] deals with T1, CD80 fused to intracellular monomeric Cherry (mCherry), P33681.
T1 chain: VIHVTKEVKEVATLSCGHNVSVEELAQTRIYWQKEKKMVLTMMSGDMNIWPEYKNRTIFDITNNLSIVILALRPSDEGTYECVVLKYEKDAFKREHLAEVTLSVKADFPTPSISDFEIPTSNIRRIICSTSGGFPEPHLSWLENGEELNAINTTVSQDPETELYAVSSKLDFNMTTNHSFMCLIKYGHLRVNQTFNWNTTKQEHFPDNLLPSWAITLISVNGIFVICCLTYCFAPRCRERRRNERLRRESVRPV
Kind of series: DNA-PAINT super-resolution microscopy with nearest-neighbour analysis (SPINNA); CHO cells co-expressing CD80-mCherry and PD-L1-mEGFP, fixed with 4% PFA; labelled with anti-mCherry and anti-GFP nanobodies; two-round Exchange-PAINT, ~3 nm localization precision; model of monomers, homodimers and heterodimers fitted to nearest-neighbour distances with density masks; 3 cells. The conditions noted are these: remark: other sources report otherwise.

Series [3] concerns the target T1, CD80 fused to intracellular monomeric …. The description is as above. The conditions noted are these: remark: other sources report otherwise.

The values below come from article PMC12056017.

B1: CD80 fused to intracellular monomeric Cherry (mCherry) (protein)
chain: T1 chain
In the case of B1, the “percent of all molecules in heterodimers” value in series [1] is “PD-L1 and CD80 heterodimers (27 ± 5) %”.

B2: CD80 fused to intracellular monomeric Cherry (mCherry), P33681 35-288 (ligand)
chain: T1 chain
Turning to B2, the values for the percent of all molecules in homodimers in series [2] and in series [3] were 9% and 11%, respectively.
